Data from article PMC8083607 (2021).
Residue numbers refer to the chain shown, from its start.

B1: FC11 (antibody, V domains shown)
VH: EVQLLESGGGVVQPGRSLRLSCAASGFTFSYYGMHWVRQAPGTGLEWVAVISYDGSNEYYADSVKGRFTISRDNSKNTLYLQMNSLRAEDTAVYYCAKAMFLGDSSGLTGLDMDVWGQGTTVTVSS
VL: DIELTQSPGTLSLSPGERATLSCRASQSVSSYLAWYQQKPGQAPRLLIYDASNRATGIPARFSGSGSGTDFTLTISSLEPEDFALYYCQQRGNWPPTFGGGTKLEIK
B2: FC01 (antibody, V domains shown)
VH: EVQLLESGTEVKKPGSSVKVSCKASGGTFSSYAISWVRQAPGQGLEWMGGIIPILGIANYAQKFQGRVTITADKSTSTAYMELSSLRSEDTAVYYCARERGYSGYGAAYYFDYWGQGTLVTVSS
VL: QSVLTQAPSVSGAPGQSVTISCTGSSSNIGAGYDVHWYQQLPGTAPKLLIYGNNNRPSGVPDRFSGSKSGTSASLAITGLQAEDEADYYCQSYDSSLSKGVFGGGTKLTVL
B3: FC08 (antibody, V domains shown)
VH: QLLQQSGAEVKKPGSSVKVSCKASGGTFSSYAISWVRQAPGQGLEWMGGIIPIIGIANYAQKFQGRVTITADKSTSTAYMELSSLRSEDTAVYYCARERGYSGYGAAYYFDYWGQGTLVTVSS
VL: SVLTQPPSVSGAPGQRVTISCTGSSSNIGAGYDVHWYQQLPGTAPKLLIYGNSNRPSGVPDRFSGSKSGTSASLAITGLQAEDEADYYCQSYDSSLSGSVFGGGTKLTVL
B4: FC07 (antibody, V domains shown)
VH: EVQLLESGGGLVQPGGSLRLSCAASGFTFGSYAMSWVRQAPGKGLEWVSSISGSGGSTYYADSAKGRFTISRDNSKNTLYLQMNSLRAEDTAVYYCAKSPNYDILTGYYNWAGYYFDYWGQGTLVTVSS
VL: DIELTQSPGTLSLSPGDRATLSCRASRGVSSNSLAWYRQRPGESPRLVISGASTRATGIPERFSGSGSGTDFSLSISRLQPEDFAVYYCQQYGSFPFTFGPGTTVDV
B5: FC06 (antibody, V domains shown)
VH: EVQLLESGGGVVQPGRSLRLSCAASGFTFSSYAMHWVRQAPGEGLEWVAVISYDGSNKYYADSVKGRFTISRDNSKNTLYLQMNSLRAGDTAVYYCARLNYYGSGFYYRLGDDYWGQGTLVTVSS
VL: DIELTQSPSSLSASEGDRVTITCRASQGIRNDLGWYQQKPGKAPKRLIYGAPSLQSGVPSRFSGSGSGTEFTLTISTLQPEDSATYYCLQHNKYPWTFGQGTKVEIK
B6: FC05 (antibody, V domains shown)
VH: VQLLEQSGAEVKKPGASVRVSCKVSGYTLPEVAMHWVRQAPGKGLEWMGGFDPEDGETMYAQKFQGRVTMTEDTSTDTAYMELSSLRSEDTAVYYCATTTPFSSSYWFDPWGQGTLVTVSS
VL: QSVLTQAPSVSGAPGQKVTISCSGSSSNIGNNYVSWYQQLPGTAPKLLIYDNNKRPSGIPDRFSGSKSGTSATLGITGLQTGDEADYYCGTWDSSLSAVVFGGGTKLTVL
B7: FC118 (antibody, V domains shown)
VH: EVQLLESGGGVVQPGRSLRLSCAASGFTFSSYAMHWVRQAPGKGLEWVAVISYDGSNKYYADSVKGRFTISRDNSKNTLYLQMNSLRAEDTAVYYCARARGGSYLYGMDVWGQGAMVTVSS
VL: DIELTQSPSSLAASVGDTVTITCRASQTIGKYLTWYQKKPGRAPDLLIYAASRLQSGVPSRFSGRASGTEFTLTISSLQPEDFATYFCQHTYRTLSFGPGTKVDLK
B8: FC124 (antibody, V domains shown)
VH: B7 VH with V50L, S56I, K65N, N77Y, R100H, G101R, L105Y, A115T
VL: DIELTQSPGTLSLSPGERATLYCRASQSVSSSYLAWYQQKPGQAPRLLIYGAFGRAAGIPDRFRGSGSGTQFTLTISRLEPEDSAVYFCQQYGQSPLYSFGQGTKLEIK
B9: FC120 (antibody, V domains shown)
VH: EVQLLESGAEVKKPGASVKVSCKASGYTFTSYYMHWVRQAPGQGLEWMGIINPSGGSTSYAQKFQGRVTMTRDTSTSTVYMELSSLRSEDTAVYYCARGGGHALDIWGQGTMVTVSS
VL: B6 VL with A7P, V99W
B10: FC122 (antibody, V domains shown)
VH: B7 VH with V50L, S56I, K65N, N77Y, R100H, G101R, L105Y, A115T
VL: DIELTQSPSSLSASVGDSVTITCRGSQIISRYLNWYQQKPGKAPKLLIYAASTLQSGVPSRFSGSGSGTEFTLSISSLEPEDFATYYCQQSYAIPYTFGQGTRLEI

target: SARS-CoV-2 RBD (recombinant, limits not stated) (SARS-CoV-2, UniProt P0DTC2 333-526); assay: SPR

Binder	Kd
B1	5.24 nM
B2	0.628 nM
B3	0.298 nM

target: SARS-CoV-2 NTD (recombinant, limits not stated) (SARS-CoV-2); assay: SPR

Binder	Kd
B4	63.4 nM
B5	7.49 nM
B6	4.32 nM

target: SARS-CoV-2 S2 (recombinant) (SARS-CoV-2); assay: SPR

Binder	Kd
B7	41.1 nM
B8	38.6 nM
B9	21.8 nM
B10	9.44 nM
